Results on six sequences are retold here after the supplement of paper PMC5998384.

Data set [1] has as its system HeLa Kyoto. In words: solubility in G1/S (NP-40 vs SDS abundance) (log2 ratio); higher = more soluble. The settings on record: cell cycle stage: G1/S.
The subject of data set [2] is HeLa Kyoto. Description: melting temperature (median over replicates), in situ; higher = more thermally stable.
Data set [3] concerns HeLa Kyoto. In words: solubility change mitosis vs G1/S (difference of NP-40 vs SDS log2 ratios) (log2 ratio difference); higher = more soluble in mitosis.
Data set [4] has as its system HeLa Kyoto. In words: thermal stability score vs G1/S (z-score of summed log2 fold changes over temperatures); higher = more thermally stable than in G1/S.
The mark [5] stands for this setting: cell cycle stage: early G1 (4.5 h after nocodazole release).
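Wherever melting temperature (median over replicates), in situ is given: HeLa Kyoto cells synchronized by double thymidine or nocodazole block, proteins quantified by TMT10plex mass spectrometry, three independent biological replicates.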
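Wherever solubility change mitosis vs G1/S (difference of NP-40 vs SDS log2 ratios) is given: synchronized HeLa Kyoto cells (double thymidine block for G1/S, nocodazole release for mitosis), protein amounts in NP-40 versus SDS lysates quantified by mass spectrometry, three biological replicates.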
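Wherever solubility in G1/S (NP-40 vs SDS abundance) is given: HeLa Kyoto cells arrested at G1/S by double thymidine block, proteins quantified by TMT10plex mass spectrometry in mild NP-40 versus SDS extracts, three biological replicates.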
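Wherever thermal stability score vs G1/S (z-score of summed log2 fold changes over temperatures) is given: synchronized HeLa Kyoto cells, proteins quantified by TMT10plex mass spectrometry, three biological replicates, mitosis taken 0.5 h after nocodazole release, G1/S directly after double thymidine block.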

Regarding “MAAAAGAAAAAAAEGEAPAEMGALLLEKETRGATERVHGSLGDTPRSEETLPKATPDSLEPAGPSSPASVTVTVGDEGADTPVGATPLIGDESENLEGDGDLRGGRILLGHATKSFPSSPSKGGSCPSRAKMSMTGAGKSPPSVQSLAMRLLSMPGAQGAAAAGSEPPPATTSPEGQPKVHRARKTMSKPGNGQPPVPEKRPPEIQHFRMSDDVHSLGKVTSDLAKRRKLNSGGGLSEELGSARRSGEVTLTKGDPGSLEEWETVVGDDFSLYYDSYSVDERVDSDSKSEVEALTEQLSEEEEEEEEEEEEEEEEEEEEEEEEDEESGNQSDRSGSSGRRKAKKKWRKDSPWVKPSRKRRKREPPRAKEPRGVNGVGSSGPSEYMEVPLGSLELPSEGTLSPNHAGVSNDTSSLETERGFEELPLCSCRMEAPKIDRISERAGHKCMATESVDGELSGCNAAILKRETMRPSSRVALMVLCETHRARMVKHHCCPGCGYFCTAGTFLECHPDFRVAHRFHKACVSQLNGMVFCPHCGEDASEAQEVTIPRGDGVTPPAGTAAPAPPPLSQDVPGRADTSQPSARMRGHGEPRRPPCDPLADTIDSSGPSLTLPNGGCLSAVGLPLGPGREALEKALVIQESERRKKLRFHPRQLYLSVKQGELQKVILMLLDNLDPNFQSDQQSKRTPLHAAAQKGSVEICHVLLQAGANINAVDKQQRTPLMEAVVNNHLEVARYMVQRGGCVYSKEEDGSTCLHHAAKIGNLEMVSLLLSTGQVDVNAQDSGGWTPIIWAAEHKHIEVIRMLLTRGADVTLTDNEENICLHWASFTGSAAIAEVLLNARCDLHAVNYHGDTPLHIAARESYHDCVLLFLSRGANPELRNKEGDTAWDLTPERSDVWFALQLNRKLRLGVGNRAIRTEKIICRDVARGYENVPIPCVNGVDGEPCPEDYKYISENCETSTMNIDRNITHLQHCTCVDDCSSSNCLCGQLSIRCWYDKDGRLLQEFNKIEPPLIFECNQACSCWRNCKNRVVQSGIKVRLQLYRTAKMGWGVRALQTIPQGTFICEYVGELISDAEADVREDDSYLFDLDNKDGEVYCIDARYYGNISRFINHLCDPNIIPVRVFMLHQDLRFPRIAFFSSRDIRTGEELGFDYGDRFWDIKSKYFTCQCGSEKCKHSAEAIALEQSRLARLDPHPELLPELGSLPPVNT [EHMT2]”, in data set [1], the “solubility in G1/S (log2)” value is -0.563. Besides, the melting temperature came to 50.1 °C in data set [2] (cell cycle stage: G1/S) and 49.9 °C in data set [2] (cell cycle stage: mitosis). Besides, the “solubility change mitosis (log2)” value in data set [3] was 0.189. Besides, the thermal stability score in data set [4] (setting [5]) turned out to be 1.11; in data set [4] (cell cycle stage: mitosis) it was 1.87.

With “MKPDETPMFDPSLLKEVDWSQNTATFSPAISPTHPGEGLVLRPLCTADLNRGFFKVLGQLTETGVVSPEQFMKSFEHMKKSGDYYVTVVEDVTLGQIVATATLIIEHKFIHSCAKRGRVEDVVVSDECRGKQLGKLLLSTLTLLSKKLNCYKITLECLPQNVGFYKKFGYTVSEENYMCRRFLK [GNPNAT1]”, the “solubility in G1/S (log2)” value in data set [1] came out at 0.222. Besides, the results for the melting temperature in data set [2] (cell cycle stage: G1/S) and in data set [2] (cell cycle stage: mitosis) were 56.2 °C and 57.5 °C, respectively. Further, in data set [3], the “solubility change mitosis (log2)” value was -0.0779. The figures for the thermal stability score in data set [4] (setting [5]) and in data set [4] (cell cycle stage: mitosis) were -0.0383 and -1.14, respectively.

Take “MVAGSDAGRALGVLSVVCLLHCFGFISCFSQQIYGVVYGNVTFHVPSNVPLKEVLWKKQKDKVAELENSEFRAFSSFKNRVYLDTVSGSLTIYNLTSSDEDEYEMESPNITDTMKFFLYVLESLPSPTLTCALTNGSIEVQCMIPEHYNSHRGLIMYSWDCPMEQCKRNSTSIYFKMENDLPQKIQCTLSNPLFNTTSSIILTTCIPSSGHSRHRYALIPIPLAVITTCIVLYMNGILKCDRKPDRTNSN [CD58]”: the “solubility in G1/S (log2)” value in data set [1] was -0.813. Moreover, the melting temperature in data set [2] (cell cycle stage: G1/S) worked out at 55.3 °C. Also, in data set [3], the “solubility change mitosis (log2)” value is 0.319. Besides, the thermal stability score was -0.387 in data set [4] (setting [5]) and -1.23 in data set [4] (cell cycle stage: mitosis).

In the case of “MRRVTLFLNGSPKNGKVVAVYGTLSDLLSVASSKLGIKATSVYNGKGGLIDDIALIRDDDVLFVCEGEPFIDPQTDSKPPEGLLGFHTDWLTLNVGGRYFTTTRSTLVNKEPDSMLAHMFKDKGVWGNKQDHRGAFLIDRSPEYFEPILNYLRHGQLIVNDGINLLGVLEEARFFGIDSLIEHLEVAIKNSQPPEDHSPISRKEFVRFLLATPTKSELRCQGLNFSGADLSRLDLRYINFKMANLSRCNLAHANLCCANLERADLSGSVLDCANLQGVKMLCSNAEGASLKLCNFEDPSGLKANLEGANLKGVDMEGSQMTGINLRVATLKNAKLKNCNLRGATLAGTDLENCDLSGCDLQEANLRGSNVKGAIFEEMLTPLHMSQSVR [KCTD9]”, in data set [1], the “solubility in G1/S (log2)” value was 0.0627. The melting temperature was 52.3 °C in data set [2] (cell cycle stage: G1/S) and 51 °C in data set [2] (cell cycle stage: mitosis). Besides, the “solubility change mitosis (log2)” value in data set [3] was -0.2. Further, the thermal stability score is -0.393 in data set [4] (setting [5]) and -1.4 in data set [4] (cell cycle stage: mitosis).

For “MEFDLGAALEPTSQKPGVGAGHGGDPKLSPHKVQGRSEAGAGPGPKQGHHSSSDSSSSSSDSDTDVKSHAAGSKQHESIPGKAKKPKVKKKEKGKKEKGKKKEAPH [IMUP]”, the “solubility in G1/S (log2)” value in data set [1] was 1.09. For the same sequence, the melting temperature in data set [2] (cell cycle stage: G1/S) is 59.3 °C. Besides, the “solubility change mitosis (log2)” value in data set [3] was determined as 0.311. In addition, the thermal stability score in data set [4] (setting [5]) is 1.02; in data set [4] (cell cycle stage: mitosis) it was -1.94.

In the case of “MEVTGVSAPTVTVFISSSLNTFRSEKRYSRSLTIAEFKCKLELLVGSPASCMELELYGVDDKFYSKLDQEDALLGSYPVDDGCRIHVIDHSGARLGEYEDVSRVEKYTISQEAYDQRQDTVRSFLKRSKLGRYNEEERAQQEAEAAQRLAEEKAQASSIPVGSRCEVRAAGQSPRRGTVMYVGLTDFKPGYWIGVRYDEPLGKNDGSVNGKRYFECQAKYGAFVKPAVVTVGDFPEEDYGLDEI [TBCB]”, the “solubility in G1/S (log2)” value in data set [1] is 0.266. Also, the values for the melting temperature in data set [2] (cell cycle stage: G1/S) and in data set [2] (cell cycle stage: mitosis) were 49.5 °C and 50.2 °C, respectively. The “solubility change mitosis (log2)” value in data set [3] amounted to 0.119. The thermal stability score in data set [4] (setting [5]) is -0.00262; in data set [4] (cell cycle stage: mitosis), 0.00665.
